Results published in patent US20190352381A1 (Alexion, published 2019).
Where two headings read alike, the source gives them in different places.

Experiments:
human properdin [1] = molecular target: T1, human properdin (human, UniProt P27918 28-469); experiment: sensorgram kinetics (RU), biotinylated properdin capture method
T1 construct: properdin of normal human serum in the hemolysis assays; Properdin forms cyclic dimers, trimers and tetramers; also called biotinylated human properdin; h-IP

cynomolgus properdin [2] = molecular target: T2, cynomolgus properdin (cynomolgus, UniProt A0A2K5V0Z6 29-470); experiment: binding kinetics, biotinylated properdin capture method
T2 construct: properdin of cynomolgus serum in the hemolysis assays; also called biotinylated cynomolgus properdin

human properdin [3] = molecular target: T1, human properdin; experiment: as above
human properdin [4] = molecular target: T1, human properdin; experiment: cell-based or functional assay
cynomolgus properdin [5] = molecular target: T2, cynomolgus properdin; experiment: binding kinetics at pH 7.4
human properdin [6] = molecular target: T1, human properdin; experiment: binding kinetics at pH 7.4
human properdin [7] = molecular target: T1, human properdin; experiment: binding kinetics, biotinylated properdin capture method; remark: listed apart in the source
human properdin [8] = molecular target: T1, human properdin; experiment: cell-based or functional assay; remark: listed apart in the source
human properdin [9] = molecular target: T1, human properdin; experiment: cell-based or functional assay; remark: listed apart in the source
Human Albumin [10] = molecular target: T3, Human Albumin (human, UniProt P02768 25-609); experiment: binding kinetics at pH 6.0
human properdin [11] = molecular target: T1, human properdin; experiment: binding kinetics at pH 6.0
Cynomolgus Albumin [12] = molecular target: T4, Cynomolgus Albumin (cynomolgus, UniProt A2V9Z4 25-608); experiment: binding kinetics at pH 6.0
Human Albumin [13] = molecular target: T3, Human Albumin; experiment: binding kinetics at pH 7.4
Cynomolgus Albumin [14] = molecular target: T4, Cynomolgus Albumin; experiment: binding kinetics at pH 7.4
human properdin [15] = molecular target: T1, human properdin; experiment: Octet bio-layer interferometry; streptavidin biosensors loaded with biotinylated human properdin, construct at 10 ug/mL
Protocol: All washes, dilutions, and measurements were performed in Kinetic buffer (FortéBio cat 185032) with the plate shaking at 1000 rpm. Streptavidin Biosensors (Forté Bio Cat:18-5019 lot: 1405301) were equilibrated in Kinetic buffer for 10 min and then loaded with 50 nm of biotinylated human properdin. For the association phase, 10 μg/mL of selected anti-properdin antibody or kinetics buffer blank was added to the biosensors preloaded with biotinylated human properdin, respectively.

B1: AB007 (VHH)
VHH: QVQLVESGGGLVQAGGSLRLSCAASGRISSIIHMAWYRQAPGKQRELVAEISRVGTTVYADSVKGRFTISRDDAKNTVTLQMNSLKPEDTAVYYCNALQYEKHGGADYWGQGTQVTVSG
notes: Llama VHH, cloned and expressed with a 6x histidine tag; also called anti-properdin VHH AB007
Kd (human properdin [1]): 0.344 nM | koff (human properdin [1]): 0.000359 s⁻¹ | kon (human properdin [1]): 1.04e+06 M⁻¹ s⁻¹

B2: TPP-2951 (Humanized anti-Albumin LVP058 (G4S)3 Linker (7-backmutations)) (bispecific antibody)
chain: EVQLVESGGGLVKPGGSLRLSCAASGRPVSNYAAAWFRQAPGKEREFVSAINWQKTATYADSVKGRFTISRDNAKNSLYLQMNSLRAEDTAVYYCAAVFRVVAPKTQYDYDYWGQGTLVTVSSGGGGSGGGGSGGGGSEVQLLESGGGLVQPGGSLRLSCAASGRISSIIHMAWFRQAPGKERELVSEISRVGTTVYADSVKGRFTISRDNSKNTLYLQMNSLKPEDTAVYYCNALQYEKHGGADYWGQGTLVTVSS
notes: Single chain: anti-albumin VHH, (G4S)3 linker, humanized LVP058 with 7 back mutations
Kd (cynomolgus properdin [2]): 2.33 nM | koff (cynomolgus properdin [2]): 0.00426 s⁻¹ | kon (cynomolgus properdin [2]): 1.82e+06 M⁻¹ s⁻¹ | Kd (human properdin [3]): 0.322 nM | koff (human properdin [3]): 0.000574 s⁻¹ | kon (human properdin [3]): 1.78e+06 M⁻¹ s⁻¹ | IC50 (read off the curve) (human properdin [4]): ~30 nM | Kd (cynomolgus properdin [5]): 2.33 nM | Kd (human properdin [6]): 0.301 nM | Kd (human properdin [7]): 0.301 nM | koff (human properdin [7]): 0.000567 s⁻¹ | kon (human properdin [7]): 1.88e+06 M⁻¹ s⁻¹

B3: TPP-3261 (Humanized anti-Albumin LVP058 (G4S)3 Linker (3-backmutations)) (bispecific antibody)
chain: EVQLVESGGGLVKPGGSLRLSCAASGRPVSNYAAAWFRQAPGKEREFVSAINWQKTATYADSVKGRFTISRDNAKNSLYLQMNSLRAEDTAVYYCAAVFRVVAPKTQYDYDYWGQGTLVTVSSGGGGSGGGGSGGGGSEVQLVESGGGLVQPGGSLRLSCAASGRISSIIHMAWVRQAPGKQRELVSEISRVGTTVYADSVKGRFTISRDNSKNTLYLQMNSLRAEDTAVYYCNALQYEKHGGADYWGQGTLVTVSS
notes: Single chain: anti-albumin VHH, (G4S)3 linker, humanized LVP058 with 3 back mutations
Kd (cynomolgus properdin [2]): 3.08 nM | koff (cynomolgus properdin [2]): 0.00587 s⁻¹ | kon (cynomolgus properdin [2]): 1.91e+06 M⁻¹ s⁻¹ | Kd (human properdin [3]): 0.485 nM | koff (human properdin [3]): 0.000834 s⁻¹ | kon (human properdin [3]): 1.72e+06 M⁻¹ s⁻¹ | Kd (cynomolgus properdin [5]): 3.08 nM | Kd (human properdin [6]): 0.485 nM

B4: TPP-2221 (LVP058_hG2-G4, VHH on silent human Fc) (Fc fusion)
chain: LEVQLVESGGGLVQAGGSLRLSCAASGRISSIIHMAWYRQAPGKQRELVAEISRVGTTVYADSVKGRFTISRDDAKNTVTLQMNSLKPEDTAVYYCNALQYEKHGGADYWGQGTQVTVSSRKCCVECPPCPAPPVAGPSVFLFPPKPKDTLMISRTPEVTCVVVDVSQEDPEVQFNWYVDGVEVHNAKTKPREEQFNSTYRVVSVLTVLHQDWLNGKEYKCKVSNKGLPSSIEKTISKAKGQPREPQVYTLPPSQEEMTKNQVSLTCLVKGFYPSDIAVEWESNGQPENNYKTTPPVLDSDGSFFLYSRLTVDKSRWQEGNVFSCSVMHEALHNHYTQKSLSLSLGK
IC50 (read off the curve) (human properdin [8]): ~10 nM

B5: AB008 (VHH)
VHH: QVQLVESGGGLRQTGESLRLSCTASGRIFEVNMMAWYRQAPGKQRELVAEISRVGTTTYADSVKGRFTISRDSAKNTVTLQMNSLKSEDTAVYYCNALQYDRYGGAEYWGQGTQVTVSG
notes: Llama VHH, cloned and expressed with a 6x histidine tag; also called anti-properdin VHH AB008
Kd (human properdin [1]): 0.803 nM | koff (human properdin [1]): 0.00169 s⁻¹ | kon (human properdin [1]): 2.11e+06 M⁻¹ s⁻¹

B6: AB006 (VHH)
VHH: QVQLAESGGGLVQAGDSLKLSCTASGRIFEVNMMAWYRQAPGKDRELVAEISRVGTTTYADSVKGRFTISRDSAKNTVTLQMNSLKSEDTAVYYCNALQYSRYGGAEYWGQGTQVTVSG
IC50 (read off the curve) (human properdin [9]): ~30 nM

B7: AB005 (VHH)
VHH: QVQVVESGGGLRQTGGSLRLSCTASGRIFEVNMMAWYRQAPGKQRELVAEISRVGTTVYADSVKGRFTISRDSAKNTVTLQMNSLKSEDTAVYYCNALQYDRYGGAEYWGQGTQVTVSS
IC50 (read off the curve) (human properdin [9]): ~20 nM

B8: TPP-2223 (Anti-properdin control antibody without C1q binding domain) (antibody, human IgG1, kappa, V domains shown)
VH: QVQLVQSGAEVKKPGASVKVSCKASGYIFTNYPIHWVRQAPGQGLEWMGFIDPGGGYDEPDERFRDRVTMTRDTSTSTVYMELSSLRSEDTAVYYCARRGGGYYLDYWGQGTLVTVSS
VL: DIQMTQSPSSLSASVGDRVTITCRASQDISFFLNWYQQKPGKAPKLLIYYTSRYHSGVPSRFSGSGSGTDFTLTISSLQPEDFATYYCQHGNTLPWTFGQGTKVEIKR
IC50 (read off the curve) (human properdin [8]): ~9 nM

B9: TPP-2225 (anti-Albumin LVP058 (G4S)3 Linker) (bispecific antibody)
chain: EVQLVESGGGLVKPGGSLRLSCAASGRPVSNYAAAWFRQAPGKEREFVSAINWQKTATYADSVKGRFTISRDNAKNSLYLQMNSLRAEDTAVYYCAAVFRVVAPKTQYDYDYWGQGTLVTVSSGGGGSGGGGSGGGGSLEVQLVESGGGLVQAGGSLRLSCAASGRISSIIHMAWYRQAPGKQRELVAEISRVGTTVYADSVKGRFTISRDDAKNTVTLQMNSLKPEDTAVYYCNALQYEKHGGADYWGQGTQVTVSS
notes: Single chain: anti-albumin VHH, (G4S)3 linker, non-humanized anti-properdin VHH LVP058; also called anti-Alb-LVP058
Kd (Human Albumin [10]): 0.646 nM | Kd (human properdin [11]): 2.57 nM | Kd (Cynomolgus Albumin [12]): 2.3 nM | IC50 (read off the curve) (human properdin [8]): ~10 nM | Kd (Human Albumin [13]): 0.774 nM | Kd (cynomolgus properdin [5]): 1.98 nM | Kd (human properdin [6]): 0.172 nM | Kd (Cynomolgus Albumin [14]): 7.07 nM | Kd (human properdin [7]): 0.172 nM | koff (human properdin [7]): 0.000349 s⁻¹ | kon (human properdin [7]): 2.03e+06 M⁻¹ s⁻¹

B10: TPP-2224 (LVP058 (G4S)3-anti-Alb-tandem VHH) (bispecific antibody)
chain: LEVQLVESGGGLVQAGGSLRLSCAASGRISSIIHMAWYRQAPGKQRELVAEISRVGTTVYADSVKGRFTISRDDAKNTVTLQMNSLKPEDTAVYYCNALQYEKHGGADYWGQGTQVTVSSGGGGSGGGGSGGGGSEVQLVESGGGLVKPGGSLRLSCAASGRPVSNYAAAWFRQAPGKEREFVSAINWQKTATYADSVKGRFTISRDNAKNSLYLQMNSLRAEDTAVYYCAAVFRVVAPKTQYDYDYWGQGTLVTVSS
IC50 (read off the curve) (human properdin [8]): ~20 nM

B11: TPP-3071 (anti-Albumin LVP058 (G4D)2 (G4) Linker) (bispecific antibody)
chain: EVQLVESGGGLVKPGGSLRLSCAASGRPVSNYAAAWFRQAPGKEREFVSAINWQKTATYADSVKGRFTISRDNAKNSLYLQMNSLRAEDTAVYYCAAVFRVVAPKTQYDYDYWGQGTLVTVSSGGGGDGGGGDGGGGEVQLVESGGGLVQAGGSLRLSCAASGRISSIIHMAWYRQAPGKQRELVAEISRVGTTVYADSVKGRFTISRDDAKNTVTLQMNSLKPEDTAVYYCNALQYEKHGGADYWGQGTQVTVSS
notes: Single chain: anti-albumin VHH, (G4D)2 G4 linker, non-humanized LVP058
binding result (human properdin [15]): binds

B12: TPP-3072 (anti-Albumin LVP058 (G4E)2 (G4) Linker) (bispecific antibody)
chain: EVQLVESGGGLVKPGGSLRLSCAASGRPVSNYAAAWFRQAPGKEREFVSAINWQKTATYADSVKGRFTISRDNAKNSLYLQMNSLRAEDTAVYYCAAVFRVVAPKTQYDYDYWGQGTLVTVSSGGGGEGGGGEGGGGEVQLVESGGGLVQAGGSLRLSCAASGRISSIIHMAWYRQAPGKQRELVAEISRVGTTVYADSVKGRFTISRDDAKNTVTLQMNSLKPEDTAVYYCNALQYEKHGGADYWGQGTQVTVSS
IC50 (read off the curve) (human properdin [4]): ~20 nM
